Test results reported in publication PMC7641730, “Structural basis of DNA replication origin recognition by human Orc6 protein binding with DNA”.

What was measured:
HsOrc6-M = target: T1, HsOrc6-M (Homo sapiens, UniProt Q9Y5N6 95-187); assay: NMR (2D NOESY of DNA); smaller shifts than with DBD; NMR: 50 mM sodium phosphate pH 6.5, 100 mM NaCl, 2 mM DTT, 298 K; ITC: 50 mM sodium phosphate pH 6.5, 100 mM NaCl, 25 C; EMSA: 25 mM Tris pH 8.0, 60 mM KCl, 5 mM MgCl2, 0.4 mM EDTA, 0.4 mM EGTA, 0.1% NP-40, 10% glycerol, 0.12 mg/ml BSA, room temperature 30 min; conditions: protein: recombinant; tags: none (N-terminal His-tag cleaved); blunt
T1 sequence: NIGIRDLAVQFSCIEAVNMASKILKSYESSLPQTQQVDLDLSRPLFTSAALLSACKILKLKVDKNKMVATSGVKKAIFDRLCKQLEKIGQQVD

HsOrc6 full length = target: T2, HsOrc6 full length (Homo sapiens, UniProt Q9Y5N6 1-252); assay: NMR titration (1H,15N-HSQC); range over residues; NMR: 50 mM sodium phosphate pH 6.5, 100 mM NaCl, 2 mM DTT, 298 K; ITC: 50 mM sodium phosphate pH 6.5, 100 mM NaCl, 25 C; EMSA: 25 mM Tris pH 8.0, 60 mM KCl, 5 mM MgCl2, 0.4 mM EDTA, 0.4 mM EGTA, 0.1% NP-40, 10% glycerol, 0.12 mg/ml BSA, room temperature 30 min; conditions: protein: recombinant; tags: none (N-terminal His-tag cleaved with 3C); blunt
T2 sequence: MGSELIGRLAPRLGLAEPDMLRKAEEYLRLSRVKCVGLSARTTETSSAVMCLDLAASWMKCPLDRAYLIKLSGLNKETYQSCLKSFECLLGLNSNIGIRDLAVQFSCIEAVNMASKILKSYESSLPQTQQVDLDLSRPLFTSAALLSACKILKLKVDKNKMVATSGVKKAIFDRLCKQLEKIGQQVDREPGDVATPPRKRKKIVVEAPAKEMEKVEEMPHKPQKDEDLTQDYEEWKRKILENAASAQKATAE

HsOrc6-DBD = target: T3, HsOrc6-DBD (Homo sapiens, UniProt Q9Y5N6 95-207); assay: NMR titration (1H,15N-HSQC); range over residues: K169 47.1±1.4, A170 57.7±1.1, R200 9.92±2.91, I203 11.3±1.5; NMR: 50 mM sodium phosphate pH 6.5, 100 mM NaCl, 2 mM DTT, 298 K; ITC: 50 mM sodium phosphate pH 6.5, 100 mM NaCl, 25 C; EMSA: 25 mM Tris pH 8.0, 60 mM KCl, 5 mM MgCl2, 0.4 mM EDTA, 0.4 mM EGTA, 0.1% NP-40, 10% glycerol, 0.12 mg/ml BSA, room temperature 30 min; conditions: protein: recombinant; tags: none (N-terminal His-tag cleaved); blunt
T3 sequence: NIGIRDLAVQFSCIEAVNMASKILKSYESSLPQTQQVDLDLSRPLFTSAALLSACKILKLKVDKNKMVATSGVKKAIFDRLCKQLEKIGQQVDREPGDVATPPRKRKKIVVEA

B1: 10-bp AT-rich DNA (dsDNA)
DNA 1: TTTAAAAAGT
DNA 2: ACTTTTTAAA
B1: binds (HsOrc6-M).

B2: 17-bp AT-rich DNA (dsDNA)
DNA 1: GGCCCTTTTTTTTCTAG
DNA 2: CTAGAAAAAAAAGGGCC
B2 showed a Kd (HsOrc6 full length) of 44.5 µM and a Kd (HsOrc6-DBD) of 23.9 µM.
